In PMC7924340 (Toxins, 2021):

B1: Tx-NM4 (natural protein)
chain: IRCFITPDVTSQICADGHVCYTKTWCDNFCASRGKRVDLGCAATCPTVKPGVNIKCCSTDNCNPFPTRNRP
B2: α-bungarotoxin from krait Bungarus multicinctus venom (natural protein)
chain: IVCHTTATSPISAVTCPPGENLCYRKMWCDAFCSSRGKVVELGCAATCPSKKPYEEVTCCSTDKCNPHPKQRPG
B3: Long type neurotoxin I from cobra N. oxiana (natural protein)
chain: ITCYKTPIPITSETCAPGQNLCYTKTWCDAWCGSRGKVIELGCAATCPTVESYQDIKCCSTDDCNPHPKQKRP

Columns and labels:
Experiment in all cases: radioligand binding
[1] = target: Acetylcholine binding protein from Lymnaea stagnalis (Lymnaea stagnalis) (UniProt P58154)
[2] = target: Acetylcholine binding protein from Aplysia californica (Aplysia californica)
[3] = target: Muscle-type nAChR from the electric organs of Torpedo californica (Torpedo californica (endogenous in electric organ))
human α7 nAChR (human) = human α7 nAChR (human) (UniProt P36544)
[4] = target: T1, Acetylcholine binding protein from Lymnaea stagnalis (Lymnaea stagnalis, UniProt P58154 20-229); settings: both partners purified
T1 construct: also called AChBP L. stagnalis; L. stagnalis AChBP

human α7 nAChR = target: T2, human α7 nAChR (human, UniProt P36544 23-502); settings: one partner purified
T2 construct: also called hα7 nAChR
T2 sequence (P36544 23-502): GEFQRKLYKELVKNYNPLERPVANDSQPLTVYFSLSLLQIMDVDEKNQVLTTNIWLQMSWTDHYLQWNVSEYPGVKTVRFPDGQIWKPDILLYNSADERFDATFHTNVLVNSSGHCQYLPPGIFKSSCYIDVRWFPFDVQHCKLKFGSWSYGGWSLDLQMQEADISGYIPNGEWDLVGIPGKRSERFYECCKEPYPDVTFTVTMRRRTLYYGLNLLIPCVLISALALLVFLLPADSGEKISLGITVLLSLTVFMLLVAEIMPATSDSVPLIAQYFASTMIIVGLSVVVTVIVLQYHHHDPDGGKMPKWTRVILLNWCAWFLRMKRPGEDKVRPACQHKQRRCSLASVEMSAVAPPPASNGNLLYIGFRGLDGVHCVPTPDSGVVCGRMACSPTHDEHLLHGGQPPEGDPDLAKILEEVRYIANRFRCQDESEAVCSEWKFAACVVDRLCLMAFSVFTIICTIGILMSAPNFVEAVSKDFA

| Molecule | IC50 [1] [nM] | IC50 [2] [nM] | IC50 [3] [nM] | IC50 (human α7 nAChR (human)) [nM] | IC50 [4] [nM] | IC50 (human α7 nAChR) [nM] |
| --- | --- | --- | --- | --- | --- | --- |
| Tx-NM3-1 (from UniProt P01388 1-71) (natural protein) | 203 | 3200 | 1.61 | 4.84 |  |  |
| α-bungarotoxin from krait Bungarus multicinctus venom (from UniProt P60615 22-95) (natural protein) |  | 155 |  |  |  |  |
| B1 |  | 2350 | 2.17 |  | 1160 ± 40 | 26.9 |
| B2 |  |  |  |  | 17.2 ± 0.7 |  |
| B3 |  | 1200 |  |  | 73.4 ± 1.3 |  |
